Assay [1] has as its target endogenous Arf6 of HEK293T cells (UniProt P62330). Put plainly: cell-based or functional assay.
In assay [2] the target is calmodulin-sepharose (BioVision) (Homo sapiens (Human)) (UniProt P0DP23). Description: luciferase-IQSEC2 cell extract on calmodulin-sepharose, no added calcium (5 mM EGTA, apocalmodulin), 0.1% Triton X-100, n=6.
The target is the same in assay [3]. Description: luciferase-IQSEC2 cell extract on calmodulin-sepharose, free calcium greater than 200 nM (calcium-calmodulin), 0.1% Triton X-100, n=11.
The target is the same in assay [4]. Description: calcium dose-response of luciferase-IQSEC2 binding to calmodulin-sepharose; the number is a calcium concentration, not a protein concentration.
Assay [5] addresses human Calm1 (NM_006888) with C-terminal triple FLAG tag (human) (UniProt P0DP23). Description: Lumier assay in HEK293T cells, renilla luciferase after anti-FLAG pull-down.
Assay [6] deals with human Calm2 (NM_001743) with C-terminal triple FLAG tag (human) (UniProt P0DP24). Described as above.
In assay [7] the target is human Calm3 (NM_005184) with C-terminal triple FLAG tag (human) (UniProt P0DP25). The description is as above.
Another assay deals with GFP-FLAG [GFP: P42212]. Put plainly: Lumier assay in HEK293T cells, negative control interactor GFP-FLAG (background).
In assay [8] the target is human Calm1 (NM_006888) with C-terminal triple FLAG tag (human) (UniProt P0DP23). Description: Lumier assay in HEK293T cells, renilla luciferase after pull-down normalized to FLAG ELISA. A general note: An ELISA detects its analyte on a solid surface through an enzyme-linked reagent.
The target of assay [9] is human Calm2 (NM_001743) with C-terminal triple FLAG tag (human) (UniProt P0DP24). The assay is described as above.
Assay [10] has as its target human Calm3 (NM_005184) with C-terminal triple FLAG tag (human) (UniProt P0DP25). The assay is described as above.

Chain of endogenous Arf6 of HEK293T cells (P62330 2-175 limits assumed): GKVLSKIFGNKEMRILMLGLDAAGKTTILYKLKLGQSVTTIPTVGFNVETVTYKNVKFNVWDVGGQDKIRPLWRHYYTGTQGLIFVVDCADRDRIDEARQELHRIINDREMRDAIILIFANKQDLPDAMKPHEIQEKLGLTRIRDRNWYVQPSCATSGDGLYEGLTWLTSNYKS

In assay [1], “FLAG-tagged wild type IQSEC2 (pCAGGS) (from UniProt Q5JU85 1-1488)” came in with an Arf6 activation (Arf6-GTP, GGA3 pulldown and immunoblot) with ionomycin, fold over sham transfected cells of 8.03 fold; an Arf6 activation (Arf6-GTP, GGA3 pulldown and immunoblot), fold over sham transfected cells of 3.87 fold.
As to “renilla luciferase-HAx3-A350V IQSEC2 (from UniProt Q5JU85 1-1488)”, in [1], the Arf6-GTP promoted, against wild type IQSEC2 protein is 30 fold; the increase in total Arf6-GTP by ELISA against cells expressing wild type IQSEC2 is 25%; the total Arf6-GTP by ELISA, equivalent amounts of protein extract of stable HEK293T lines (spectrophotometric units) was found to be 0.075. In assay [2], the luciferase units bound to calmodulin sepharose (luciferase units) was 48. Moreover, the luciferase units bound to calmodulin sepharose (luciferase units) in assay [3] came out at 594. The free calcium concentration at half-maximal binding in [4] was 1 µM.
Regarding “renilla luciferase-HAx3-wild type IQSEC2 (full length human IQSEC2, pcDNA3.1 Zeo construct) (from UniProt Q5JU85 1-1488)”, in assay [1], the total Arf6-GTP by ELISA, equivalent amounts of protein extract of stable HEK293T lines (spectrophotometric units) came to 0.06. The fold difference of interaction strength, wild type against A350V IQSEC2 in assay [5] was found to be 34 fold; in assay [6] it was 15 fold; in assay [7], 36 fold. The substance also gave a fold change of interaction strength, wild type against mutant IQSEC2 with GFP-FLAG [GFP: P42212] of 1.07 fold. In addition, the fold higher normalized interaction score, wild type against A350V IQSEC2 in [8] was found to be 31 fold; in assay [9] it was 14 fold; in assay [10], 31 fold.

The values are drawn from patent US20210032673A1.
